Values of other authors in publication PMC6258485.

Target: CD55 (Homo sapiens) (UniProt P08174)
Sequence of UniProt P08174 (P08174 35-353): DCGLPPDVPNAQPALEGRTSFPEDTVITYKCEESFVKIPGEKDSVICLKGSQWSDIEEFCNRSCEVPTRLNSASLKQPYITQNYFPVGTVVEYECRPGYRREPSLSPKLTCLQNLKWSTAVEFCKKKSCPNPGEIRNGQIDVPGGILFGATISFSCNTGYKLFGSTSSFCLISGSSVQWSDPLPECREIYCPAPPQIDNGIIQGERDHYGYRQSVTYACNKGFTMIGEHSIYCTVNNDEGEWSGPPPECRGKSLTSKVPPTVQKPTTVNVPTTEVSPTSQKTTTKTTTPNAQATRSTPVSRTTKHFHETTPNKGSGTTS

Substance: CD97 (from UniProt P48960)
- Kd: 86 µM
